From patent US20210355194A1 (TWIST BIOSCIENCE, published 2021) come the findings set out here.

The target of experiment [1] is T1, Acro SARS-CoV-2 (COVID-19) S1 protein (SARS-CoV-2, UniProt P0DTC2 16-685).
T1 construct: also called SARS-CoV-2 S1
The experiment can be described thus: SPR.

For experiment [2], the target named is T2, SARS-COV2-S1 RBD (mouse IgG2Fc tag) (SARS-CoV-2, UniProt P0DTC2 319-537). The experiment can be described thus: column not explained; likely FACS, S1 RBD on Vero E6.
Experiment [3] has as its target T2, SARS-COV2-S1 RBD (mouse IgG2Fc tag). The experiment can be described thus: FACS, blocks S1 RBD-mFc binding to ACE2 on Vero E6.
In experiment [4] the target is SARS-CoV-2 S1 (subunit 1) protein (SARS-CoV-2, UniProt P0DTC2 16-685). The experiment can be described thus: phage ELISA.
For experiment [5], the target named is T3, COVID S1 RBD Fc fusion (Antigen 1) (SARS-CoV-2, UniProt P0DTC2 319-541).
T3 construct: domain: S1 RBD
The experiment can be described thus: phage ELISA.

The target of experiment [6] is T4, COVID S1 RBM Fc fusion (Antigen 2) (SARS-CoV-2, UniProt P0DTC2 437-508).
T4 construct: domain: S1 RBM
The experiment can be described thus: phage ELISA.

For the next experiment, the target named is T5, S1-Fc (SARS-CoV-2, UniProt P0DTC2 14-685).
T5 construct: also called S1 Fc fusion protein
The experiment can be described thus: phage ELISA.

The target in experiment [7] is T2, SARS-COV2-S1 RBD (mouse IgG2Fc tag). The experiment can be described thus: FACS, blocks S1 RBD-mFc binding to ACE2 on Vero E6. This is another data set of the same source.

Positions count from the first letter of the chain named. Like-named read-outs stand apart in the source and are kept apart here.

B1: variant 5-37 (Fc fusion)
VHH: EVQLVESGGGLVQPGGSLRLSCAASGSTFSINAMGWFRQAPGKEREFVGGISRSGATTNYADSVKGRFTISADNSKNTAYLQMNSLKPEDTAVYYCAADGVPEYSDYASGPVWGQGTLVTVSS
In turn, B1 gave a Kd in experiment [1] of 30.2 nM. Also, in experiment [2], the “MFI Fold Decrease” value is 8.19 fold. In experiment [3], this molecule gave an IC50 of 1.01 nM.

B2: variant 5-34 (Fc fusion)
VHH: EVQLVESGGGLVQPGGSLRLSCAASGRTFSRYIMGWFRQAPGKEREFVAAISWSGGDNTYYADSVKGRFTISADNSKNTAYLQMNSLKPEDTAVYYCAAYRIVVGGTSPGDWRWGQGTLVTVSS
Turning to B2, the “MFI Fold Decrease” value in experiment [2] came out at 5.69 fold. This molecule also returned an IC50 in experiment [3] of 1.21 nM.

B3: variant 5-1 (Fc fusion)
VHH: EVQLVESGGGLVQPGGSLRLSCAASGGTFSSIGMGWFRQAPGKEREFVAAISWDGGATAYADSVKGRFTISADNSKNTAYLQMNSLKPEDTAVYYCAKEDVGKPFDWGQGTLVTVSS
Take B3: in experiment [1], the Kd was 15.1 nM. In addition, in experiment [2], the “MFI Fold Decrease” value was determined as 10 fold. The same molecule yielded an IC50 in experiment [3] of 0.75 nM.

B4: variant 5-20 (Fc fusion)
VHH: EVQLVESGGGLVQPGGSLRLSCAASGRTIVPYTMGWFRQAPGKERELVAAISPSAFTEYADSVKGRFTISADNSKNTAYLQMNSLKPEDTAVYYCAARRWGYDWGQGTLVTVSS
With B4, the dissociation constant (Kd) in experiment [1] is 14.3 nM. Moreover, the “MFI Fold Decrease” value in experiment [2] came out at 12.4 fold. Further, in experiment [3], the IC50 was determined as 1.23 nM.

B5: variant 2-4 (antibody, V domains shown)
VH: EVQLLESGGGLVQPGGSLRLSCAASGFTFSDFAMAWVRQAPGKGLEWVSAISGSGDITYYADSVKGRFTISRDNSKNTLYLQMNSLRAEDTAVYYCAREADGLHSPWHFDLWGQGTLVTVSS
VL: DIQMTQSPSSLSASVGDRVTITCRASQSIDTYLNWYQQKPGKAPKLLIYAASALASGVPSRFSGSGSGTDFTLTISSLQPEDFATYYCQQSYSAPPYTFGQGTKVEIK
With B5, the “screening ELISA (Avg), fold over background” value (“screening ELISA (Avg), fold” for short) in experiment [4] is 15.5 fold over background. Further, the “specificity ELISA, fold over background” value in experiment [5] stood at 38.8 fold over background; in experiment [6] it was 1.2 fold over background; with S1-Fc it was 7.2 fold over background. Besides, the “specificity ELISA, percent binding relative to Acro S1” value in experiment [5] was found to be 103%; in experiment [6], 3.1%; with S1-Fc, 19%.

B6: variant 2-5 (antibody, V domains shown)
VH: B5 VH
VL: B5 VL with D30H
For the molecule B6, the IC50 in experiment [7] and in experiment [3] was 2.15 nM throughout.

B7: variant 2-8 (antibody, V domains shown)
VH: B5 VH
VL: B5 VL
Take B7: the “screening ELISA (Avg), fold” value in experiment [4] was found to be 32.4 fold over background. Moreover, the entries for the “specificity ELISA, fold over background” value (in experiment [5]; in experiment [6]; with S1-Fc) were 36.5 fold over background, 1.1 fold over background and 5.4 fold over background, respectively. Further, the entries for the “specificity ELISA, percent binding relative to Acro S1” value (in experiment [5]; in experiment [6]; in the experiment with S1-Fc) were 102%, 3.1% and 15%, respectively.

B8: variant 2-12 (antibody, V domains shown)
VH: EVQLLESGGGLVQPGGSLRLSCAASGFTFSDYPMNWVRQAPGKGLEWVSTISGSGGITFYADSVKGRFTISRDNSKNTLYLQMNSLRAEDTAVYYCVRHDEYSFDYWGQGTLVTVSS
VL: B5 VL with T31N, A50G, A51V, A55Q, Y92H, T98F
As to B8, the “screening ELISA (Avg), fold” value in experiment [4] worked out at 18.2 fold over background. Besides, the entries for the “specificity ELISA, fold over background” value (in experiment [5]; in experiment [6]; in the experiment with S1-Fc) were 40.3 fold over background, 1.1 fold over background and 14.7 fold over background, respectively. In addition, the “specificity ELISA, percent binding relative to Acro S1” value in experiment [5] stood at 101%; in experiment [6], 2.9%; with S1-Fc, 37%.

B9: variant 2-13 (antibody, V domains shown)
VH: B8 VH with T50A, G56D, I57N, F59Y
VL: B5 VL with A50G, A55E, Y92H, T98F
In the case of B9, the “screening ELISA (Avg), fold” value in experiment [4] is 19.1 fold over background. In addition, the “specificity ELISA, fold over background” value stood at 32.1 fold over background in experiment [5], 0.9 fold over background in experiment [6] and 3.7 fold over background with S1-Fc. The entries for the “specificity ELISA, percent binding relative to Acro S1” value (in experiment [5]; in experiment [6]; in the experiment with S1-Fc) were 118%, 3.1% and 13.4%, respectively.

B10: variant 2-5 (antibody, V domains shown)
VH: B5 VH
VL: B5 VL with D30H
As to B10, the “screening ELISA (Avg), fold” value in experiment [4] came out at 30.8 fold over background. For the same molecule, the “specificity ELISA, fold over background” value in experiment [5] was 35.9 fold over background; in experiment [6] it was 1.1 fold over background; with S1-Fc, 24.3 fold over background. The “specificity ELISA, percent binding relative to Acro S1” value in experiment [5] is 93.7%; in experiment [6], 3%; with S1-Fc, 63.3%.

B11: variant 2-2 (antibody, V domains shown)
VH: EVQLLESGGGLVQPGGSLRLSCAASGFTFSRHAMNWVRQAPGKGLEWVSGISGSGDETYYADSVKGRFTISRDNSKNTLYLQMNSLRAEDTAVYYCARDLPASYYDSSGYYWHNGMDVWGQGTLVTVSS
VL: DIQMTQSPSSLSASVGDRVTITCRASQTINTYLNWYQQKPGKAPKLLIYSASTLQSGVPSRFSGSGSGTDFTLTISSLQPEDFATYYCQQSYSTFTFGQGTKVEIK
For the molecule B11, the “screening ELISA (Avg), fold” value in experiment [4] worked out at 23.4 fold over background. Further, the “specificity ELISA, fold over background” value came out at 39.6 fold over background in experiment [5], 1.1 fold over background in experiment [6] and 4.7 fold over background with S1-Fc. Further, the “specificity ELISA, percent binding relative to Acro S1” value was 100% in experiment [5], 2.8% in experiment [6] and 12% with S1-Fc.

B12: variant 2-2 (antibody, V domains shown)
VH: B11 VH
VL: B11 VL
With B12, the IC50 in experiment [7] and in experiment [3] was 0.56 nM throughout.
